From US20200317769A1

Target: soluble cynomolgus monkey TNF-alpha (cynomolgus monkey) (UniProt P79337)
Assay: cell-based or functional assay

Sequence of soluble cynomolgus monkey TNF-alpha (cynomolgus monkey) (P79337 77-233 limits assumed): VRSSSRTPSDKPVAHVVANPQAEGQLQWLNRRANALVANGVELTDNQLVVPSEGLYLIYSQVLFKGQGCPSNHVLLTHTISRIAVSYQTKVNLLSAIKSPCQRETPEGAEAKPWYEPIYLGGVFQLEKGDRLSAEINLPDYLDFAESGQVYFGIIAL

## adalimumab (antibody)
  Inhibition of cynomolgus TNF-induced L929 cell cytotoxicity EC50: 0.04 nM
